Biological target: the molecule itself
Test: SEC; Superdex 200 16/60, 20 mM HEPES-NaOH pH 8.0, 250 mM NaCl, 2 mM DTT, proteins ~3 mg/ml, 1 ml/min, calibrated with ferritin, aldolase, conalbumin and ovalbumin; oligomeric state from the elution volume

B1: 6-P-β-glucosidase from Streptococcus mutans UA159 (SmBgl) (enzyme)
chain: SNAMSKLPENFLWGGAVAAHQLEGGWQEGGKGISVADVMTAGRHGVAREITAGVLEGKYYPNHEAIDFYHHYKEDVKLFAEMGFKCFRTSIAWTRIFPKGDEAEPNEAGLQFYDDLFDECLKYGIEPVVTLSHFELPYHLVTEYGGFTNRKVIDFFVHFAEVCFRRYKDKVKYWMTFNEINNQANYQEDFAPFTNSGIVYKEGDDREAIMYQAAHYELVASARAVKIGHAINPNLNIGCMVAMCPIYPATCNPKDILMAQKAMQKRYYFADVHVHGFYPEHIFKYWERKAIKVDFTERDKKDLFEGTVDYIGFSYYMSFVIDAHRENNPYYDYLETEDLVKNPYVKASDWDWQIDPQGLRYALNWFTDMYHLPLFIVENGFGAIDQVEADGMVHDDYRIDYLGAHIKEMIKAVDEDGVELMGYTPWGCIDLVSAGTGEMRKRYGFIYVDKDDEGKGTLKRSPKLSFNWYKEVIASNGDDI
notes: non-natural N-terminal extension left after TEV cleavage of the His6 tag (vector pMCSG7); 6-P-β-glucosidase Bgl of Streptococcus mutans UA159, 477 residues (Met1-Ile477), amplified from genomic DNA; The SAD structure (3pn8) was solved from selenomethionine-labelled protein; source: E. coli BL21 (DE3) Magic, purified (IMAC-I, SEC on Superdex 200, TEV cleavage of the His6 tag, IMAC-II); not shown: …
stoichiometry N: 2
